According to a protein production outcome set (Wang et al. 2014):

Experiment: label from the status in PepcDB records
For “IAGPGLGSGVRARVLQSFTVDSSKAGLAPLEVRVLGPRGLVEPVNMVDNGDGTHTVTYTPSQEGPYMVSVKYADEEIPRSPFKVKVLPTYDASKVTASGPGLSSYGVPASLPVDFAIDARDAGEGLLAVQITDQEGKPKRAIVHDNKDGTYAVTYIPDKTGRYMIGVTYGGDDIPLSPYRIRATQTGDASKCLATGPGIASTVKTGEEVGFVVDAKTAGKGKVTCTVLTPDGTEAEADVIENEDGTYDIFYTAAKPGTYVIYVRFGGVDIPNSPFTVMATDGEVTAVEEAPVNACPPGFRPWVTEEAYVPVSDMNGLGFKPFDLVIPFAVRKGEITGEVHMPSGKTATPEIVDNKDGTVTVRYAPTEVGLHEMHIKYMGSHIPESPLQFYVNYPNSGSVSAYGPGLVYGVANKTATFTIVTEDAGEGGLDLAIEGPSKAEISCIDNKDGTCTVTYLPTLPGDYSILVKYNDKHIPGSPFTAKITDDSRRCSQVKLGSAADFLLDISETDLSSLTASIKAPSGRDEPCLLKRLPNNHIGISFIPREVGEHLVSIKKNGNHVANSPVSIMVVQSEIGDARRAKVYGRGLSEGRTFEMSDFIVDTRDAGYGGISLAVEGPSKVDIQTEDLEDGTCKVSYFPTVPGVYIVSTKFADEHVPGSPFTVKISGEGRVKESITRTSRAPSVATVGSICDLNLKIPEINSSDMSAHVTSPSGRVTEAEIVPMGKNSHCVRFVPQEMGVHTVSVKYRGQHVTGSPFQFTVGPLGEGGAHKVRAGGPGLERGEAGVPAEFSIWTREAGAGGLSIAVEGPSKAEITFDDHKNGSCGVSYIAQEPGNYEVSIKFNDEHIPESPYLVPVIAPSDDARRLTVMSLQESGLKVNQPASFAIRLNGAKGKIDAKVHSPSGAVEECHVSELEPDKYAVRFIPHENGVHTIDVKFNGSHVVGSPFKVRVGEPGQAGNPALVSAYGTGLEGGTTGIQSEFFINTTRAGPGTLSVTIEGPSKVKMDCQETPEGYKVMYTPMAPGNYLISVKYGGPNHIVGSPFKAKVTGQRLVSPGSANETSSILVESVTRSSTETCYSAIPKASSDASKVTSKGAGLSKAFVGQKSSFLVDCSKAGSNMLLIGVHGPTTPCEEVSMKHVGNQQYNVTYVVKERGDYVLAVKWGEEHIPGSPFHVTVP”, the protein production was “failed”.
In the case of “IDGIFIMDAEGHYLDVNPAICSAIGYTRDEFLALDWGVLSRGVDSGWAAASLARIVGGEPLREERTVWTRNGDQLTVELSAHLLPD”, the protein production is reported as “failed”.
In the case of “IGGHVGYGVAKSYRGKGYATILLEKALDELKTLNVEVVLMTCNPLNFASQTVMKKCGGYQIESYIKKNGKPVHRYHIPNT”, the protein production is reported as “failed”.
For “IGPPESWPQALKTAVRIMLTSQQPIWIGWGTELTYLYNDPYKSIIGGKHPWALGRPTSEVWSEIWEDIAPLLAKATSGHEGTYVEAQLLIMERNGFPEETYYTFSYSPIPTDDGSPGGIFCANTDDTQRVITERQLSLLRDLAASAAESRS”, the protein production was “failed”.
In the case of “IKERVKMEVIGLEIPLISGNEDYTLAELISTYPLEDKDVIVIAETVVSKIEKNVILKNEITPSNEAMELSKKLGKEPEVVQVILDESNEIVKLGPNFIITETKHGFVCANSGVDESNTSKGIKPLPKNPDKSAEEIRMGIEKITGKKVGVIINDSMGRPFRKGSCGIAIGVSGVCGLWDRKGEKDLFGRELKTTEVGIADELAATASAVMGQSNEGIPLVIIRNAPVPFTNGTGKELIRKKEEDVFR”, the protein production is reported as “failed”.
For “IKHWVFDMDGTLTIAVHDFAAIREALSIPAEDDILTHLAALPADESAAKHAWLLEHERDLAQGSRPAPGAVELVRELAGRGYRLGILTRNARELAHVTLEAIGLADCFAEADVLGRDEAPPKPHPGGLLKLAEAWDVSPSRMVMVGDYRFDLDCGRAAGTRTVLVNLPDNPWPELTDWHARDCAQLRDLLSA”, the protein production was “failed”.
With “IKILKNFDEAIIVDAASLDPESLYQRTYAGKMTFGRVSDLGQFIRESEPEPDVRKSKGSMFSQAMKKWVQGNTDEAQEELAWKIAKMIVSDIMQQAQYDQPLEKSTKL” the protein production was “failed”.
In the case of “IKMAKDYGFCFGVKRAIQIAEKNQNSLIFGSLIHNAKEINRLEKNFNVKIEEDPKKIPKNKSVIIRTHGIPKQDLEYLKNKGVKITDATCPYVIKPQQIVESMSKEGYQIVLFGDINHPEVKGVISYATNQALVVNSLEELQEKKLQRKVALVSQTTKQTPKLLQIASYLVERCTEVRIFNTICNATSYNQKAALDLSKEVDIMIVVGGKTSSNTKQLLSIAKQHCKDSYLVEDENELELAWFKDKKLCGITAGASTPDWIIENVKQKISTI”, the protein production is reported as “failed”.
With “IKTRGRNLYSYEGKIGKAVDDIKSGQEGYVIVEGEYWRALALEDIKKNEDIVVVKREGMKLMVRKKVSDIETSRV” the protein production was “failed”.
In the case of “ILELIAKGKPASKIYAEIALMYEERHSGLRCSMLELKGGKLLHAGAPSLPKSYCKAVHGLEYGPQVGSCGTSTYTGKRVLVENIATDPKWADLKYVALPYGMRSCWSEPIKSSSGKVLGAFGMYHDYPALPNEQESNDLTSAARLAGIVMEREQNQKRIQ”, the protein production is reported as “failed”.
For “ILGWVEFTRLEPWGIKTPARIDTGANTSSMSARDINVFKRNGKTWVRFTFDFKKGTAERSIEIERPLVRMVKIKQHDGPSQERPVISMEICLADEIREAEFDLIDRRALNYPVLLGRKALAGYVVVDPARAYLTKAVCGHTKKKKKGSEPADPGQQHE”, the protein production was “failed”.
With “ILKEYSKLLSFNAQKYYLVGAEKEDLVQEGILGLLKAIKFYDETKSSFSSFAFLCIRREMISAIRKANTQKHMVLNEALKTNAILEDSAYFDDEGHNINNYKSSESNPEEAYLLKEEIEEFKKFSENNFSKFEKEVLTYLIRGYSYREIATILSKNLKSIDNTIQRIRKKSEEWIK” the protein production was “failed”.
For “ILTTENQGVFTITLNRIDKKNALTNDMYKQLCQYFAYAEQTSSIHCVVIQGNEQCFCAGNDLHDFIQCSADDELAALAFVKVLSEFTKPLVAGVAGVAVGIGTTLLLHCDMVIAANNSKFKLPFTQLGLCPEAGSSLLLTQKVGPNKAFELMVLGQTFNAEQALSYGITNQTCQPDELLALTSDVAQAISNLPVESVMTSRRLIRQANKLALSQVISEESQAFSHLVKSEECKNILAKFFK”, the protein production was “failed”.
In the case of “INDKLLVQTIKKALFGLRYQRAKKDIQEKDTMISVVADNSPAGICLFGDNGIIYANKALETITGYSKSELIGGSLLDIIQSDSKRLSERINLSLDSACNLEKYSEIRIKTKTGKIRYIDLIANSVEFKEGYVCIANMIDV”, the protein production is reported as “failed”.
For “INKLYAINANLEESELRFRSAFNSAAIGMAIVSLEGMWLKVNQSLCQIVGYSEEELLETNFQSITHPEDLELDLGYVRQLLEGDIRFYHMEKRYIHKNGSVIWILLSASLIRDLDNKPLYFISQIQNID”, the protein production was “failed”.
In the case of “INQQEDSSESCWNCGRKASETCSGCNTARYCGSFCQHKDWEKHHHIC”, the protein production is reported as “not failed”.
In the case of “IPGSPFTAKITDDSRRCSQVKLGSAADFLLDISETDLSSLTASIKAPSGRDEPCLLKRLPNNHIGISFIPREVGEHLVSIKKNGNHVANSPVSIMVVQSEIGD”, the protein production is reported as “not failed”.
In the case of “IPSDGLTIPYGSGPKPIFRAQVGKKVYQSLINQATESVYITTPYLIIDYDLTETIKNAAMRGVDVRIITPYIPDKKFIQLVTRGAYPDLLSAGVRIYEYSPGFIHSKQMLVDEDFAVVGTINLDYRSLVHHYENAVLLYKTPSIREIARDFRNIFADSQEVYPHSIKTSWYQKLVKEIAQLFAPIL”, the protein production is reported as “failed”.
In the case of “IQVFVKNPDGGSYAYAINPNSFILGLKQQIEDQQGLPKKQQQLEFQGQVLQDWLGLGIYGIQDSDTLILSKKKG”, the protein production is reported as “not failed”.
In the case of “IRRKINANVYDKVVLYAPTWRGIHGKATLDIEKLKNDLEKLADQDCHIVFRGHHMIEKLVSEQNISGITIVPSEIDTNELLGAIDILITDYSSIAFDFFVMNRPVIYYAYDIEQYNNERGLYFPLNELPGTVCFNDVELLNTLSGYLRNEIYFDASKGIDKFCKNDDGSVCGKVIEWFFF”, the protein production is reported as “failed”.
With “IRSIWENNGFGLMSSKTMTDFDYWISDFEKIGASQKEAEQLIVKAIEIAIDANARNYNYINAILKDWEQRGFKSVEEREA” the protein production was “not failed”.
In the case of “IRYAIERQRVEEALRHSEERFRVALKNSPIFVFNQDRDLRYTWIYNPIAGWTVEEMLGKQDSEIMSEQDAQCLTAIKYHVLTTGIGTRQVVSIGTPLGTKYYDLTVEPLRNESQDIVGITCACIDISERKLAEAKIREQ”, the protein production is reported as “not failed”.
In the case of “ITERKQIEEALQKSGQRLRMTLESTSTNWWERDLITDQADWSEQSDHLLGYTPDSYEKNQDTFYKLVHPDDREHVQAGVNLAIATGEPYQGEFRLVQADGNCIWILGTGHVEYNEAGQPVRMSGLNIN”, the protein production is reported as “failed”.
For “IYGYVEKATLIDQNLTLSAKLDTGAKSASLHAVNITEIEKKGIPYLRFTVPTKTGDYSFEGEYVGKVKIKVRSSETNPGLLRTTPIKRPVVLLNIKLGDKVRTIKVNLTNRKRFLYPLLLGRDAIIDFNGAVDPALTFTTKSK”, the protein production was “not failed”.
For “KAFLEDMKKYAETFLEPWFKAPNKGTFQIVYKSRNNSHVNREEVIRELAGIVCTLNSENKVDLTNPQYTVVVEIIKAVCCLSVVK”, the protein production was “not failed”.
With “KCETKEKGAITAKELYTMMTDKNISLIIMDARRMQDYQDSCILHSLSVPEEAISPGVTASWIEAHLPDDSKDTWKKRGNVEYVVLLDWFSSAKDLQIGTTLRSLKDALFKWESKTVLRNEPLVLEGGYENWLLCYPQYTTNAKV” the protein production was “not failed”.
For “KDFLAMFSPKCGGCNRPVLENYLSAMDTVWHPECFVCGDCFTSFSTGSFFELDGRPFCELHYHHRRG”, the protein production was “not failed”.
With “KFAYKVGIGLEVPFANTNIWSFQTGLNFISKGVKGDGVTDAWDVVDVTINQLYLELPLMVGARIHTASNFDLLFKGGPYLAYGVGGKTKIDGVSEKADTFGDDGLKRFDAGLGLGVAFEFGNIVVGVETGTSFTKVASGVSAHNLSALATIGYKF” the protein production was “failed”.
In the case of “KGDRLGAVVEWQDNTEALRLKAEADARALEESRVAGENARIRSALDNCTTNVMIADNDRRIIYMNHSVTDMLRGAESDLRKALPNFEVRRLIGSTMDEFHKNPAHQRDLLANLRSTYRAEIQVAGRTFSLVANPVFDADGERLGSVVEWKDRTAEVEIEREVSEIVRAASAGE”, the protein production is reported as “failed”.
With “KGGVWRNTEDEILKAAVMKYGKNQWSRIASLLHRKSAKQCKARWYEWLDPSIKKTEW” the protein production was “not failed”.
In the case of “KGIKKEIHINDKVIYYTHIEKGSSTVCFMFSGSGYNYDKPLFYYATMLMLEHKIDVVHIHYSYDEQVMNKPMEEVTKIMMDDINPVMKEVLKAEQYNDTIFLGKSLGTIPIANDLMKREEFLQSKMILLTPLLTFDTIFDSILHSNHEGFLVMGDKDHQYNADQVDQLHKTNLQIEVVKNANHSVNVGGYETENSIEAIAKIIGKLKEVVRTN”, the protein production is reported as “failed”.
In the case of “KIDFISDVSCPWCVIGLRALDQALEALGDEVQAQIHFQPFELNPNMPAEGQDIKEHIAEKYGSTPEQIEAIHETIRERGAELGFTFGKGERRIYNTFDAHRLLHWAEQEGKQPALKQALFVAYFSELKDPSSHQTLADVAQKVGLDRLRAQAILDSDEFASEVREAEQLWTSRGITSVPTMVFNDQYAVSGGQPVEVFVSAIRQMLSES”, the protein production is reported as “failed”.
With “KIIGYARVSFNAQKDDLERQIQLIKSYAEENGWDIQILKDIGSGLNEKRKNYKKLLKMVMNRKVEKVIIAYPDRLTRFGFETLKEFFKSYGTEIVIINKKHKTPQEELVEDLITIVSHFAGKLYGMHSHKYKKLTKTVKEIVREEDAKEKE” the protein production was “not failed”.
For “KLFPRLFGLYRHVADLYQKMKALHPIMNDTLNRQAERWGLGKIYLSEEEFCQSEEKEKIRMLQSDFYDRMWYRLDFRGKLGSAKSFQCYYFFFRHS”, the protein production was “failed”.
For “KLHYKQIVWVKLGNYRWWPAEICNPRSVPLNIQGLKHDLGDFPVFFFGSHDYYWVHQGRVFPYVEGDKSFAEGQTSINKTFKKALEEAAKRFQELKA”, the protein production was “not failed”.
